T1: human DLL1 (human, UniProt O00548 18-545, limits assumed)
T1 construct: also called hDLL1
T1 sequence (looked up): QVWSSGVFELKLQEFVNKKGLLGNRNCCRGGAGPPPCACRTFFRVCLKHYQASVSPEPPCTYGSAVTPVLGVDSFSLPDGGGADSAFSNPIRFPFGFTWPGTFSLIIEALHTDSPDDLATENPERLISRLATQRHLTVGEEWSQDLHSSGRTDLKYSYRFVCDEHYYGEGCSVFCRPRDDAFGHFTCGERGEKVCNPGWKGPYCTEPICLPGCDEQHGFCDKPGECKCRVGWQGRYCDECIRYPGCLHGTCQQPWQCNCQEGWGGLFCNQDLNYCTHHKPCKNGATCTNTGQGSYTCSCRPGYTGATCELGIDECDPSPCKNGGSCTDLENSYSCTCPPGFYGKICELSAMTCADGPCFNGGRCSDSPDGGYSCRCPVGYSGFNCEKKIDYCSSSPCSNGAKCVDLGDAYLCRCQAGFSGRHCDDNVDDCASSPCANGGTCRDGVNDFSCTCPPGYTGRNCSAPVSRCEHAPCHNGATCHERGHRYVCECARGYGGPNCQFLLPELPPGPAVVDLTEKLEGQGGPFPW

T2: cynomolgus DLL4 overexpressed on cells (cynomolgus, UniProt Q9NR61 27-685 (human entry))
T2 construct: also called cyno DII4; cDLL4
T2 chain: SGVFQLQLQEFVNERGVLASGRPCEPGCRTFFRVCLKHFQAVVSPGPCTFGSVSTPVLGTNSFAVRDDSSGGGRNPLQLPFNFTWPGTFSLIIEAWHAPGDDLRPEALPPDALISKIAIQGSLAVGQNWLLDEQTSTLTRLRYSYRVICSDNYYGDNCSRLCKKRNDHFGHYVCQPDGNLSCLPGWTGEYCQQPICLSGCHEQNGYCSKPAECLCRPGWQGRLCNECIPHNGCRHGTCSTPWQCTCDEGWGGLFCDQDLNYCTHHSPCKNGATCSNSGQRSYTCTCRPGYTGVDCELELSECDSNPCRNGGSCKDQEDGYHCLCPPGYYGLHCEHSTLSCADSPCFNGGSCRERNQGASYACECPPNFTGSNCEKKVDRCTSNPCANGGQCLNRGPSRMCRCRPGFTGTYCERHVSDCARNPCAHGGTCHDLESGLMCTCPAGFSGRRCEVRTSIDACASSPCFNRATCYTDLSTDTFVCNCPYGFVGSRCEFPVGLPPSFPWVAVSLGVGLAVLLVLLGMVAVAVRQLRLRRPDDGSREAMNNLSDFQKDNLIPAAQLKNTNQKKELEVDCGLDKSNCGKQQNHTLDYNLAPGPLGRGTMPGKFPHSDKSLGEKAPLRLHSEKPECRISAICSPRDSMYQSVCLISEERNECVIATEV


How the values were obtained:
recombinant human DLL4 [1] = molecular target: T3, recombinant human DLL4 (human, UniProt Q9NR61 25-522); assay: binding ELISA, coated rhDLL4
T3 construct: also called rhDLL4; hDLL4
Method: (§1) In order to determine cross-reactivity to mouse DII4 a binding ELISA is performed. […] Wells are blocked with a casein solution (1% in PBS). VHHs are applied as dilution series and binding is detected using a mouse anti-myc (Roche) and an anti-mouse-AP conjugate (Sigma, St Louis, Mo., USA) (FIG. 7 A-H). As reference, binding to human DII4 is measured.

recombinant human DLL4 [2] = molecular target: T3, recombinant human DLL4; assay: competition AlphaScreen, biot-hDLL4/hNotch1-Fc
Method: In brief, 1 nM biotinylated human DII4 is captured on streptavidin-coated donor beads (20 μg/mL), while 0.4 nM of the receptor human Notch1 (as a Fc fusion protein) is captured on anti-human Fc VHH-coated acceptor beads (20 μg/mL). Both loaded beads are incubated together with a dilution range of the competing VHH (FIG. 4 A-E).

recombinant mouse DLL4 [3] = molecular target: T4, recombinant mouse DLL4 (mouse, UniProt Q9JI71 27-532); assay: binding ELISA on coated recombinant mouse DLL4, OD 405 nm
T4 construct: extracellular domain; also called rmDLL4; mDLL4
Method: as §1

human DLL1 = molecular target: T1, human DLL1; assay: binding ELISA on coated recombinant human DLL1, OD 405 nm
Method: (§2) Absence of binding to homologous ligands human DLL1 and human Jagged-1 is assessed via solid phase binding assay (ELISA). In brief, human DLL1 (Alexis, San Diego, Calif., USA) and human Jagged-1 (Alexis, San Diego, Calif., USA) are coated overnight at 4° C. at 1 μg/mL in a 96-well MaxiSorp plate (Nunc, Wiesbaden, Germany). Wells are blocked with a casein solution (1% in PBS). VHHs are applied as dilution series and binding is detected using a mouse anti-myc (Roche) and an anti-mouse-AP conjugate (Sigma, St. Louis, Mo., USA).

human Jagged-1 = molecular target: T5, human Jagged-1 (human, UniProt P78504 34-1067, limits assumed); assay: binding ELISA on coated recombinant human Jagged-1, OD 405 nm
T5 construct: also called hJagged-1; hJAG1
Method: as §2

recombinant mouse DLL4 [4] = molecular target: T4, recombinant mouse DLL4; assay: binding ELISA, coated rmDLL4
Method: as §1

[5] = molecular target: T6, human DLL4 overexpressed on cells (human, UniProt Q9NR61 27-685); assay: competitive FMAT, hNotch1-Fc on CHO-hDLL4
T6 construct: full length human DLL4 on CHO or HEK293 cells; also called CHO-hDLL4; CHO-hDII4

[6] = molecular target: T7, mouse DLL4 overexpressed on cells (mouse, UniProt Q9JI71 27-686); assay: competitive FMAT, hNotch1-Fc on CHO-mDLL4
T7 construct: whole, on cells; also called CHO-mDLL4; CHO-mDII4

recombinant human DLL4 [7] = molecular target: T3, recombinant human DLL4; assay: SPR Biacore T100, hDLL4 on chip, VHH/Fab injected
Method: Kinetic analysis to determine the affinity of the DII4-VHH interaction is performed by Surface Plasmon Resonance (SPR) on a Biacore T100 instrument. […] Purified VHHs or Fab fragment are injected for 2 minutes at different concentrations (between 10 and 300 nM) and allowed to dissociate for 20 min at a flow rate of 45 μl/min. Between sample injections, the surfaces are regenerated with 10 mM glycine pH1.5 and 100 mM HCl. HBS-N (Hepes buffer pH7.4) is used as running buffer. If possible, data are evaluated by fitting a 1:1 interaction model (Langmuir binding) onto the binding curves. The affinity constant KD is calculated from resulting association and dissociation rate constants (kₐ) and […].

[8] = molecular target: T6, human DLL4 overexpressed on cells; assay: FACS titration on HEK293-hDLL4 cells, MCF
Method: (§3) In order to determine the cynomologus cross-reactivity of the VHHs, a FACS binding experiment is performed. Cynomolgus DII4 expressing HEK293 cells (transient or stable transfection) are used for a titration binding experiment of the VHHs. After a 30 minutes incubation on ice, all samples are washed and detection is performed by applying anti-c-myc˜Alexa647 (Santa Cruz Biotechnology, Santa Cruz, Calif., USA). Human and mouse DII4 overexpressing HEK293 cells are taken as reference. The mean MCF value is determined on the FACS Array and used for calculation of the EC₅₀ value (see FIG. 9 A-E).

[9] = molecular target: T2, cynomolgus DLL4 overexpressed on cells; assay: FACS titration on HEK293-cDLL4 cells, MCF
Method: as §3

recombinant human DLL4 [10] = molecular target: T3, recombinant human DLL4; assay: competition ELISA, biot-hDLL4 to coated hNotch1-Fc
Source text: Residual binding of biotinylated human DII4 is detected using horseradish peroxidase (HRP) conjugated extravidin (Sigma, St. Louis, Mo., USA) (FIG. 3 A-C). Human DII4 is biotinylated as described above.

[11] = molecular target: T8, human DLL4, full length, overexpressed on cells (human, UniProt Q9NR61 27-685); assay: FMAT, hNotch1-Fc on CHO-hDLL4, -HSA
T8 construct: CHO cells in FMAT, HEK293 cells in the reporter assay; also called hDLL4; CHO-hDLL4

[12] = molecular target: T9, mouse DLL4, full length, overexpressed on CHO cells (mouse, UniProt Q9JI71 27-686); assay: FMAT, hNotch1-Fc on CHO-mDLL4, -HSA
T9 construct: whole, on cells; also called mDLL4; CHO-mDLL4

[13] = molecular target: T10, recombinant human VEGF165 (human, UniProt P15692-4 27-191, biotinylated in the competition assays); assay: AlphaScreen, hVEGF165/hVEGFR1-Fc competition, -HSA
T10 construct: Bought protein; also called hVEGF165; rhVEGF165

[14] = molecular target: T10, recombinant human VEGF165; assay: AlphaScreen, hVEGF165/hVEGFR2-Fc competition, -HSA

T4 sequence (Q9JI71 27-532): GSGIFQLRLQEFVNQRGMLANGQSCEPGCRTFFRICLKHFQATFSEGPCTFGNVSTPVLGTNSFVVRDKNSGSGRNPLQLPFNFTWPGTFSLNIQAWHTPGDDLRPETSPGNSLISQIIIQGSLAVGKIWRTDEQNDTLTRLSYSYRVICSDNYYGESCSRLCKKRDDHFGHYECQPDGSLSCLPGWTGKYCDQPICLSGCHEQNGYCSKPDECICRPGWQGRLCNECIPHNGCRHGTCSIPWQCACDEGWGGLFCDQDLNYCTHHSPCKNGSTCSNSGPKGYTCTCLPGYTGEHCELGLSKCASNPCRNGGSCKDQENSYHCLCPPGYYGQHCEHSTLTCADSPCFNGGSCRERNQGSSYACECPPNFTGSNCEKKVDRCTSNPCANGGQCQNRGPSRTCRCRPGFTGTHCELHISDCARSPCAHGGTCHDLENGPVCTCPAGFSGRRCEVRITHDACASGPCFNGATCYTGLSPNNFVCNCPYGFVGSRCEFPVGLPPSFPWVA
T10 sequence (P15692 other isoform, or with tags, fused parts or gaps): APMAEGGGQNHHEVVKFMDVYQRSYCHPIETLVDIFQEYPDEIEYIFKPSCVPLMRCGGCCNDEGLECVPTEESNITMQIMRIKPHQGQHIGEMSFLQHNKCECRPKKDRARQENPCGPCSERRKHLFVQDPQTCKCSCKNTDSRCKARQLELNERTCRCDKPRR
T7 sequence (Q9JI71 27-686): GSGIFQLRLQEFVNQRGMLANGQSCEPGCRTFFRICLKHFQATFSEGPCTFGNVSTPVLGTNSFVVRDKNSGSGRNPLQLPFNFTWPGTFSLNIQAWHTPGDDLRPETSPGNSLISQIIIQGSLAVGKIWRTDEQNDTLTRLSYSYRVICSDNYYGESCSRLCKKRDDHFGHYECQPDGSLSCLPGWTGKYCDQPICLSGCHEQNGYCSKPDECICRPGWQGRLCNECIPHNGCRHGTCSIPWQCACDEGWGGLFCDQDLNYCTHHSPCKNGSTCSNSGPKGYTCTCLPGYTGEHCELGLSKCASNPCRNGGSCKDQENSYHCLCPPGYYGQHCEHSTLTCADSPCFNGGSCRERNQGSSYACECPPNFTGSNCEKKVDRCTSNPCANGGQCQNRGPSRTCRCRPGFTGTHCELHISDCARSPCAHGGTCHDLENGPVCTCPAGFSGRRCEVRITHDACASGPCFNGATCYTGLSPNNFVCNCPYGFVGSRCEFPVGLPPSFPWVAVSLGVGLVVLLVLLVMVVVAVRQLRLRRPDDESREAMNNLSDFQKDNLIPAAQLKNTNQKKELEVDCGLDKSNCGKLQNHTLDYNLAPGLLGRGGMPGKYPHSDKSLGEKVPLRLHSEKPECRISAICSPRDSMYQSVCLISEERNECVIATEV

Binder	EC50 (recombinant human DLL4 [1])	IC50 (recombinant human DLL4 [2])	binding result (human DLL1)	binding result (human Jagged-1)	EC50 (recombinant mouse DLL4 [4])	IC50 [5]	IC50 [6]	EC50 (read off the curve) [8]	EC50 (read off the curve) [9]	IC50 (recombinant human DLL4 [10])	% inh [11]	IC50 [11]	% inh [12]	IC50 [12]	% inh [13]	IC50 [13]	% inh [14]	IC50 [14]	also measured
DLLBII07A02 (VHH) VHH: EVQLVESGGGLVQAGGSLRLSCAASGSTFNSYAMGWYRQAPGKQREWVAAFSTGGSTNYADSVKGRFTISRDNAKNTVYLQMNSLKPEDTAVYYCFYSGSYYYPTDVFEYDYWGQGTQVTVSS	1.4 nM	0.4 nM	no binding (tested: 2.5e-7 M)	no binding (tested: 2.5e-7 M)	–	–	–	–	–	–	–	–	–	–	–	–	–	–	binding result (recombinant mouse DLL4 [3]): no binding (tested: 2.5e-7 M)
A1 (bispecific antibody, PEGylated at the Cys at position 15 of the 35 Gly-Ser linker, VEGFBII038 (N-terminal E missing) - 35GS(Cys15) - DLLBII018) VQLVESGGGLVQPGGSLRLSCAASGRTFSSYSMGWFRQAPGKEREFVVAISKGGYKYDAVSLEGRFTISRDNAKNTVYLQINSLRPEDTAVYYCASSRAYGSSRLRLADTYEYWGQGTLVTVSSGGGGSGGGGSGGGGCGGGGSGGGGSGGGGSGGGGSEVQLVESGGGLVQPGGSLRLSCAASGRTFSSYAMAWYRQAPGKEREYVAAIRWSGGTAYYADSVKGRFTISRDNAKNTVYLQMNSLRPEDTAVYYCANRAPDTRLAPYEYDHWGQGTLVTVSS	–	–	–	–	–	–	–	–	–	–	102%	6.7 nM	100%	3.4 nM	80%	0.1 nM	100%	0.07 nM	–
A3 (bispecific antibody, PEGylated at the Cys at position 15 of the 35 Gly-Ser linker, VEGFBII038 - 35GS(Cys15) - VEGFBII032 - 35GS - DLLBII018) VQLVESGGGLVQPGGSLRLSCAASGRTFSSYSMGWFRQAPGKEREFVVAISKGGYKYDAVSLEGRFTISRDNAKNTVYLQINSLRPEDTAVYYCASSRAYGSSRLRLADTYEYWGQGTLVTVSSGGGGSGGGGSGGGGCGGGGSGGGGSGGGGSGGGGSEVQLVESGGGLVQPGGSLRLSCAASGIRFISMAWYRQAPGKQRELVARISSGGTTAYADSVKGRFTISRDNSKNTVYLQMNSLRAEDTAVYYCNTFSSRPNPWGQGTLVTVSSGGGGSGGGGSGGGGSGGGGSGGGGSGGGGSGGGGSEVQLVESGGGLVQPGGSLRLSCAASGRTFSSYAMAWYRQAPGKEREYVAAIRWSGGTAYYADSVKGRFTISRDNAKNTVYLQMNSLRPEDTAVYYCANRAPDTRLAPYEYDHWGQGTLVTVSS	–	–	–	–	–	–	–	–	–	–	97%	16.1 nM	95%	7.9 nM	97%	0.02 nM	100%	0.01 nM	–
DLLBII039 (VHH) VHH: EVQLVESGGGLVQPGGSLRLSCAASGFTIGSYDMSWVRRAPGKGPEWVSSISSGGGSTYYADYVKGRFTISRDNAKNTLYLQMNSLRPEDTAVYYCAADRYIWARQGEYWGAYEYDYWGQGTLVTVSS	–	–	–	–	–	–	–	–	–	–	102%	3.6 nM	100%	6.7 nM	–	–	–	–	–

Now from value to binder, other results behind:

EC50 (recombinant human DLL4 [1])	IC50 (recombinant human DLL4 [2])	binding result (human DLL1)	binding result (human Jagged-1)	EC50 (recombinant mouse DLL4 [4])	IC50 [5]	IC50 [6]	EC50 (read off the curve) [8]	EC50 (read off the curve) [9]	IC50 (recombinant human DLL4 [10])	% inh [11]	IC50 [11]	% inh [12]	IC50 [12]	% inh [13]	IC50 [13]	% inh [14]	IC50 [14]	Binder	also measured
44.3 nM	5.4 nM	no binding (tested: 2.5e-7 M)	no binding (tested: 2.5e-7 M)	244 nM	28.7 nM	49.6 nM	~6 nM	~6 nM	33.9 nM	–	–	–	–	–	–	–	–	DLLBII56C04 (VHH) VHH: EVQLVESGGGLVQPGGSLRLSCTASGFTFDVYAIGWFRQAPGKEPEGISCISSSGSITYYADSVKGRFTTSRDSAKNTVYLQMNSLKPEDTAVYYCATPGIAACRGIHYWGQGTQVTVSS	Kd (recombinant human DLL4 [7]): 45 nM; koff (recombinant human DLL4 [7]): 0.0049 s⁻¹; kon (recombinant human DLL4 [7]): 110000 M⁻¹ s⁻¹
7.9 nM	2.2 nM	no binding (tested: 2.5e-7 M)	no binding (tested: 2.5e-7 M)	83.4 nM	53.9 nM	49.5 nM	~10 nM	~10 nM	17.3 nM	–	–	–	–	–	–	–	–	DLLBII57C11 (VHH) VHH: EVQLVESGGGLVQPGGSLRLSCTASGFTFDDYAIGWFRQAPGKEPEGISCISSSGSITYDADSVKGRFTISRDNAKNTVYLQMNSLKPEDTAVYYCATPGIAACRGIHYWGQGTQVTVSS	–

— patent US20140120095A1 (Boehringer Ingelheim, published 2014)
